Publication PMC7405809

How the values were obtained:
His6-BFL-1ΔC C4S/C19S = His6-BFL-1ΔC C4S/C19S (UniProt Q16548); experiment: fluorescence polarisation
[1] = molecular target: BFL-1ΔC C4S/C19S conjugated to 4E14 at C55 (UniProt Q16548); experiment: fluorescence polarisation

EC50 (His6-BFL-1ΔC C4S/C19S): 23 nM
EC50 [1]: 1300 nM
Substance: FITC-BID BH3 peptide
